Source: US20110263827A1 (AbbVie / Abbott, published 2011)

Legend:
HGF = biological target: T1, HGF (UniProt P14210 32-728, limits assumed, biotinylated); test: direct bind ELISA, C-term VD;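 also: ELISA with antibody or DVD-Ig preparations applied to target antigen-coated plates for 1 h at room temperature, TMB colour development, absorbance read at 450 nm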
T1 construct: ELISA antigen

EGFR [1] = biological target: T2, EGFR (UniProt P00533 25-645, limits assumed, biotinylated); test: direct bind ELISA, N-term VD;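 also: antibody or DVD-Ig preparations bound to immobilized target antigen on ELISA plates, 1 h at room temperature, TMB detection read as absorbance at 450 nm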
T2 construct: ELISA antigen; construct not described

IGF1R [2] = biological target: T3, IGF1R (UniProt P08069 31-932, limits assumed, biotinylated); test: direct bind ELISA, C-term VD;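 also: ELISA with antibody or DVD-Ig preparations applied to target antigen-coated plates for 1 h at room temperature, TMB colour development, absorbance read at 450 nm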
T3 construct: ELISA antigen

EGFR [3] = biological target: T2, EGFR; test: direct bind ELISA, C-term VD;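 also: ELISA with antibody or DVD-Ig preparations applied to target antigen-coated plates for 1 h at room temperature, TMB colour development, absorbance read at 450 nm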
IGF1R [4] = biological target: T3, IGF1R; test: direct bind ELISA, N-term VD;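 also: antibody or DVD-Ig preparations bound to immobilized target antigen on ELISA plates, 1 h at room temperature, TMB detection read as absorbance at 450 nm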

| EC50 (HGF) [nM] | EC50 (EGFR [1]) [nM] | EC50 (IGF1R [2]) [nM] | EC50 (EGFR [3]) [nM] | EC50 (IGF1R [4]) [nM] | Binder |
| --- | --- | --- | --- | --- | --- |
| 159 | 3.77 |  |  |  | DVD335 (bispecific antibody, DVD-Ig; HC S, LC S; variable parts only) VH: QVQLQESGPGLVKPSQTLSLTCTVSGYSISSDFAWNWIRQPPGKGLEWMGYISYSGNTRYQPSLKSRITISRDTSKNQFFLKLNSVTAADTATYYCVTAGRGFPYWGQGTLVTVSSASTKGPQVQLVESGGGLVKPGGSLRLSCAASGFTFSDYYMSWIRQAPGKGLEWVSYISSSGSTIYYADSVKGRFTISRDNAKNSLYLQMNSLRAEDTAVYYCARDEYNSGWYVLFDYWGQGTLVTVSS VL: DIQMTQSPSSMSVSVGDRVTITCHSSQDINSNIGWLQQKPGKSFKGLIYHGTNLDDGVPSRFSGSGSGTDYTLTISSLQPEDFATYYCVQYAQFPWTFGGGTKLEIKRTVAAPDIQMTQSPSSVSASVGDRVTITCRASQGISSWLAWYQQKPGKAPNLLIYEASSLQSGVPSRFGGSGSGTDFTLTISSLQPEDFATYYCQQANGFPWTFGQGTKVEIKR |
|  | 0.48 | 0.99 |  |  | DVD805 (bispecific antibody, DVD-Ig; HC L, LC S; variable parts only) VH: QVQLQESGPGLVKPSQTLSLTCTVSGYSISSDFAWNWIRQPPGKGLEWMGYISYSGNTRYQPSLKSRITISRDTSKNQFFLKLNSVTAADTATYYCVTAGRGFPYWGQGTLVTVSSASTKGPSVFPLAPEVQLLESGGGLVQPGGSLRLSCTASGFTFSSYAMNWVRQAPGKGLEWVSAISGSGGTTFYADSVKGRFTISRDNSRTTLYLQMNSLRAEDTAVYYCAKDLGWSDSYYYYYGMDVWGQGTTVTVSS VL: DIQMTQSPSSMSVSVGDRVTITCHSSQDINSNIGWLQQKPGKSFKGLIYHGTNLDDGVPSRFSGSGSGTDYTLTISSLQPEDFATYYCVQYAQFPWTFGGGTKLEIKRTVAAPDIQMTQFPSSLSASVGDRVTITCRASQGIRNDLGWYQQKPGKAPKRLIYAASRLHRGVPSRFSGSGSGTEFTLTISSLQPEDFATYYCLQHNSYPCSFGQGTKLEIKR |
|  | 3.55 | 78.6 |  |  | DVD333 (bispecific antibody, DVD-Ig; HC S, LC S; variable parts only) VH: QVQLQESGPGLVKPSQTLSLTCTVSGYSISSDFAWNWIRQPPGKGLEWMGYISYSGNTRYQPSLKSRITISRDTSKNQFFLKLNSVTAADTATYYCVTAGRGFPYWGQGTLVTVSSASTKGPEVQLLESGGGLVQPGGSLRLSCTASGFTFSSYAMNWVRQAPGKGLEWVSAISGSGGTTFYADSVKGRFTISRDNSRTTLYLQMNSLRAEDTAVYYCAKDLGWSDSYYYYYGMDVWGQGTTVTVSS VL: DIQMTQSPSSMSVSVGDRVTITCHSSQDINSNIGWLQQKPGKSFKGLIYHGTNLDDGVPSRFSGSGSGTDYTLTISSLQPEDFATYYCVQYAQFPWTFGGGTKLEIKRTVAAPDIQMTQFPSSLSASVGDRVTITCRASQGIRNDLGWYQQKPGKAPKRLIYAASRLHRGVPSRFSGSGSGTEFTLTISSLQPEDFATYYCLQHNSYPCSFGQGTKLEIKR |
| 0.96 | 5.13 |  |  |  | DVD777 (bispecific antibody, DVD-Ig; HC L, LC L; variable parts only) VH: QVQLQESGPGLVKPSQTLSLTCTVSGYSISSDFAWNWIRQPPGKGLEWMGYISYSGNTRYQPSLKSRITISRDTSKNQFFLKLNSVTAADTATYYCVTAGRGFPYWGQGTLVTVSSASTKGPSVFPLAPQVQLVESGGGLVKPGGSLRLSCAASGFTFSDYYMSWIRQAPGKGLEWVSYISSSGSTIYYADSVKGRFTISRDNAKNSLYLQMNSLRAEDTAVYYCARDEYNSGWYVLFDYWGQGTLVTVSS VL: DIQMTQSPSSMSVSVGDRVTITCHSSQDINSNIGWLQQKPGKSFKGLIYHGTNLDDGVPSRFSGSGSGTDYTLTISSLQPEDFATYYCVQYAQFPWTFGGGTKLEIKRTVAAPSVFIFPPDIQMTQSPSSVSASVGDRVTITCRASQGISSWLAWYQQKPGKAPNLLIYEASSLQSGVPSRFGGSGSGTDFTLTISSLQPEDFATYYCQQANGFPWTFGQGTKVEIKR |
| 9.24 | 4.85 |  |  |  | DVD807 (bispecific antibody, DVD-Ig; HC L, LC S; variable parts only) VH: QVQLQESGPGLVKPSQTLSLTCTVSGYSISSDFAWNWIRQPPGKGLEWMGYISYSGNTRYQPSLKSRITISRDTSKNQFFLKLNSVTAADTATYYCVTAGRGFPYWGQGTLVTVSSASTKGPSVFPLAPQVQLVESGGGLVKPGGSLRLSCAASGFTFSDYYMSWIRQAPGKGLEWVSYISSSGSTIYYADSVKGRFTISRDNAKNSLYLQMNSLRAEDTAVYYCARDEYNSGWYVLFDYWGQGTLVTVSS VL: DIQMTQSPSSMSVSVGDRVTITCHSSQDINSNIGWLQQKPGKSFKGLIYHGTNLDDGVPSRFSGSGSGTDYTLTISSLQPEDFATYYCVQYAQFPWTFGGGTKLEIKRTVAAPDIQMTQSPSSVSASVGDRVTITCRASQGISSWLAWYQQKPGKAPNLLIYEASSLQSGVPSRFGGSGSGTDFTLTISSLQPEDFATYYCQQANGFPWTFGQGTKVEIKR |
| 1.29 | 4.51 |  |  |  | DVD837 (bispecific antibody, DVD-Ig; HC S, LC L; variable parts only) VH: QVQLQESGPGLVKPSQTLSLTCTVSGYSISSDFAWNWIRQPPGKGLEWMGYISYSGNTRYQPSLKSRITISRDTSKNQFFLKLNSVTAADTATYYCVTAGRGFPYWGQGTLVTVSSASTKGPQVQLVESGGGLVKPGGSLRLSCAASGFTFSDYYMSWIRQAPGKGLEWVSYISSSGSTIYYADSVKGRFTISRDNAKNSLYLQMNSLRAEDTAVYYCARDEYNSGWYVLFDYWGQGTLVTVSS VL: DIQMTQSPSSMSVSVGDRVTITCHSSQDINSNIGWLQQKPGKSFKGLIYHGTNLDDGVPSRFSGSGSGTDYTLTISSLQPEDFATYYCVQYAQFPWTFGGGTKLEIKRTVAAPSVFIFPPDIQMTQSPSSVSASVGDRVTITCRASQGISSWLAWYQQKPGKAPNLLIYEASSLQSGVPSRFGGSGSGTDFTLTISSLQPEDFATYYCQQANGFPWTFGQGTKVEIKR |
|  | 2.42 | 3.47 |  |  | DVD835 (bispecific antibody, DVD-Ig; HC S, LC L; variable parts only) VH: QVQLQESGPGLVKPSQTLSLTCTVSGYSISSDFAWNWIRQPPGKGLEWMGYISYSGNTRYQPSLKSRITISRDTSKNQFFLKLNSVTAADTATYYCVTAGRGFPYWGQGTLVTVSSASTKGPEVQLLESGGGLVQPGGSLRLSCTASGFTFSSYAMNWVRQAPGKGLEWVSAISGSGGTTFYADSVKGRFTISRDNSRTTLYLQMNSLRAEDTAVYYCAKDLGWSDSYYYYYGMDVWGQGTTVTVSS VL: DIQMTQSPSSMSVSVGDRVTITCHSSQDINSNIGWLQQKPGKSFKGLIYHGTNLDDGVPSRFSGSGSGTDYTLTISSLQPEDFATYYCVQYAQFPWTFGGGTKLEIKRTVAAPSVFIFPPDIQMTQFPSSLSASVGDRVTITCRASQGIRNDLGWYQQKPGKAPKRLIYAASRLHRGVPSRFSGSGSGTEFTLTISSLQPEDFATYYCLQHNSYPCSFGQGTKLEIKR |
|  |  |  | 137 | 0.19 | DVD334 (bispecific antibody, DVD-Ig; HC S, LC S; variable parts only) VH: EVQLLESGGGLVQPGGSLRLSCTASGFTFSSYAMNWVRQAPGKGLEWVSAISGSGGTTFYADSVKGRFTISRDNSRTTLYLQMNSLRAEDTAVYYCAKDLGWSDSYYYYYGMDVWGQGTTVTVSSASTKGPQVQLQESGPGLVKPSQTLSLTCTVSGYSISSDFAWNWIRQPPGKGLEWMGYISYSGNTRYQPSLKSRITISRDTSKNQFFLKLNSVTAADTATYYCVTAGRGFPYWGQGTLVTVSS VL: DIQMTQFPSSLSASVGDRVTITCRASQGIRNDLGWYQQKPGKAPKRLIYAASRLHRGVPSRFSGSGSGTEFTLTISSLQPEDFATYYCLQHNSYPCSFGQGTKLEIKRTVAAPDIQMTQSPSSMSVSVGDRVTITCHSSQDINSNIGWLQQKPGKSFKGLIYHGTNLDDGVPSRFSGSGSGTDYTLTISSLQPEDFATYYCVQYAQFPWTFGGGTKLEIKR |
|  |  |  | 286 | 0.83 | DVD776 (bispecific antibody, DVD-Ig; HC L, LC L; variable parts only) VH: EVQLLESGGGLVQPGGSLRLSCTASGFTFSSYAMNWVRQAPGKGLEWVSAISGSGGTTFYADSVKGRFTISRDNSRTTLYLQMNSLRAEDTAVYYCAKDLGWSDSYYYYYGMDVWGQGTTVTVSSASTKGPSVFPLAPQVQLQESGPGLVKPSQTLSLTCTVSGYSISSDFAWNWIRQPPGKGLEWMGYISYSGNTRYQPSLKSRITISRDTSKNQFFLKLNSVTAADTATYYCVTAGRGFPYWGQGTLVTVSS VL: DIQMTQFPSSLSASVGDRVTITCRASQGIRNDLGWYQQKPGKAPKRLIYAASRLHRGVPSRFSGSGSGTEFTLTISSLQPEDFATYYCLQHNSYPCSFGQGTKLEIKRTVAAPSVFIFPPDIQMTQSPSSMSVSVGDRVTITCHSSQDINSNIGWLQQKPGKSFKGLIYHGTNLDDGVPSRFSGSGSGTDYTLTISSLQPEDFATYYCVQYAQFPWTFGGGTKLEIKR |
|  |  |  | 53.8 | 0.4 | DVD806 (bispecific antibody, DVD-Ig; HC L, LC S; variable parts only) VH: EVQLLESGGGLVQPGGSLRLSCTASGFTFSSYAMNWVRQAPGKGLEWVSAISGSGGTTFYADSVKGRFTISRDNSRTTLYLQMNSLRAEDTAVYYCAKDLGWSDSYYYYYGMDVWGQGTTVTVSSASTKGPSVFPLAPQVQLQESGPGLVKPSQTLSLTCTVSGYSISSDFAWNWIRQPPGKGLEWMGYISYSGNTRYQPSLKSRITISRDTSKNQFFLKLNSVTAADTATYYCVTAGRGFPYWGQGTLVTVSS VL: DIQMTQFPSSLSASVGDRVTITCRASQGIRNDLGWYQQKPGKAPKRLIYAASRLHRGVPSRFSGSGSGTEFTLTISSLQPEDFATYYCLQHNSYPCSFGQGTKLEIKRTVAAPDIQMTQSPSSMSVSVGDRVTITCHSSQDINSNIGWLQQKPGKSFKGLIYHGTNLDDGVPSRFSGSGSGTDYTLTISSLQPEDFATYYCVQYAQFPWTFGGGTKLEIKR |
|  |  |  | 56.8 | 0.51 | DVD836 (bispecific antibody, DVD-Ig; HC S, LC L; variable parts only) VH: EVQLLESGGGLVQPGGSLRLSCTASGFTFSSYAMNWVRQAPGKGLEWVSAISGSGGTTFYADSVKGRFTISRDNSRTTLYLQMNSLRAEDTAVYYCAKDLGWSDSYYYYYGMDVWGQGTTVTVSSASTKGPQVQLQESGPGLVKPSQTLSLTCTVSGYSISSDFAWNWIRQPPGKGLEWMGYISYSGNTRYQPSLKSRITISRDTSKNQFFLKLNSVTAADTATYYCVTAGRGFPYWGQGTLVTVSS VL: DIQMTQFPSSLSASVGDRVTITCRASQGIRNDLGWYQQKPGKAPKRLIYAASRLHRGVPSRFSGSGSGTEFTLTISSLQPEDFATYYCLQHNSYPCSFGQGTKLEIKRTVAAPSVFIFPPDIQMTQSPSSMSVSVGDRVTITCHSSQDINSNIGWLQQKPGKSFKGLIYHGTNLDDGVPSRFSGSGSGTDYTLTISSLQPEDFATYYCVQYAQFPWTFGGGTKLEIKR |
